In the test the target is T1, 人DLL4抗原 (human, UniProt Q9NR61 27-524, limits assumed).
T1 construct: Coated at 1 μg/mL; also called Delta like 4
Nature of the test: ELISA, DLL4 antigen coated on plate, HRP secondary antibody, OD450-OD630.

T1 sequence (Q9NR61 27-524 limits assumed): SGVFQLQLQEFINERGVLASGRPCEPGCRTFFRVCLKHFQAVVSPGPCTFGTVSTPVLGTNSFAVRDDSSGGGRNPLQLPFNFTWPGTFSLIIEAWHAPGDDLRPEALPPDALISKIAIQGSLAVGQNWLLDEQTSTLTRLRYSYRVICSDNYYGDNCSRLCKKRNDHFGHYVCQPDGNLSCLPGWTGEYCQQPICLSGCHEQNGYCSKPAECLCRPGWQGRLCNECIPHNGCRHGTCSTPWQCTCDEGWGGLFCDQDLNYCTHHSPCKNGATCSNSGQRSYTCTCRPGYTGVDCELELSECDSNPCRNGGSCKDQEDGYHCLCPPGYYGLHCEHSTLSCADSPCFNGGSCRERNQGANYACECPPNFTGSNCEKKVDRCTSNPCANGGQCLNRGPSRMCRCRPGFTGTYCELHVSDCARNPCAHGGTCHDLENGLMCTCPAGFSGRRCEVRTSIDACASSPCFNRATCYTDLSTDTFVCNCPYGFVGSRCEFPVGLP

B1: 抗人DLL4人源化抗体H3L2 (antibody, V domains shown)
VH: QVQLVQSGAEVKKPGSSVKVSCKASGYTFSGYWMQWIKQAPGQGLEWIGAIYPGDGDTRYTQKFKGRATLTADKSTSTAYMELSSLRSEDTAVYYCAGGNFFFDYWGQGTLVTVSS
VL: EIVITQSPDFQSVTPKEKVTITCSVSSSISSSYLHWYQQKPDQSPKPWIYGTSNLASGVPSRFSGSGSGTDYTLTINSLEAEDAATYYCQQWSSSPLTFGQGTKLEIKV
What is called EC50 is the concentration that produces a half-maximal response. Turning to B1, the EC50 came out at 49.2 nM. This counts as double-digit nanomolar.

These data come from CN111544600A (UNIV CHINA PHARMA, dated 2020).
